Here are results for 2 substances from US20240261333A1, “NOVEL TARGETS FOR ENHANCING ANTI-TUMOR IMMUNITY” (THE BROAD INSTITUTE, INC., priority 2021, published 2024).

One test has as its target DDX20 (UniProt Q9UHI6). Briefly: co-IP, anti-FLAG, C-FLAG B3GNT2 cell lysate, mass spectrometry.
The target of a further test is RPL3 (UniProt P39023). Described as above.
The next test concerns the target MTDH (UniProt Q86UE4). The description is as above.
The next test deals with ITGB3 (UniProt P05106). The description is as above.
Another test deals with NCCRP1 (UniProt Q6ZVX7). Described as above.
The next test has as its target DNAJA2 (UniProt O60884). The description is as above.
A further test deals with HNRNPU (UniProt Q00839). The test is described as above.
Another test addresses SRSF3 (UniProt P84103). The test is described as above.
A further test addresses RPS16 (UniProt P62249). Described as above.
The target in a further test is TAGLN (UniProt Q01995). The test is described as above.
In another test the target is PSMA7 (UniProt O14818). The description is as above.
A further test has as its target HIST1H1E (UniProt P10412). Described as above.
In the next test the target is RPL27A (UniProt P46776). Described as above.
Another test deals with PBXIP1 (UniProt Q96AQ6). The test is described as above.
For another test, the target named is LIMA1 (UniProt Q9UHB6). The description is as above.
The target in a further test is TNKS1BP1 (UniProt Q9C0C2). Described as above.
For the next test, the target named is RPL5 (UniProt P46777). The test is described as above.
The target of a further test is RPL19 (UniProt P84098). The description is as above.
Another test addresses GSN (human) (UniProt P06396). The experiment in a line: co-IP with anti-FLAG, N-FLAG B3GNT2, mass spectrometry.
For the next test, the target named is HNRNPH1 (human) (UniProt P31943). The description is as above.
A further test has as its target MAP4 (human) (UniProt P27816). The test is described as above.
The next test concerns the target SERPINB3 (human) (UniProt P29508). The test is described as above.
The target in a further test is RACK1 (human) (UniProt P63244). Described as above.
The next test addresses PPFIBP1 (human) (UniProt Q86W92). The description is as above.
The target of the next test is IL13RA2 (human) (UniProt Q14627). Described as above.
A further test deals with RHOT2 (human) (UniProt Q8IXI1). The description is as above.
In a further test the target is PSMB5 (human) (UniProt P28074). Described as above.
Another test has as its target HBB (human) (UniProt P68871). Described as above.
The target in another test is RPL28 (human) (UniProt P46779). The test is described as above.
The next test addresses LUC7L3 (human) (UniProt O95232). The test is described as above.
For the next test, the target named is RPS27A (human) (UniProt P62979). Described as above.
The target of another test is PSMA3 (human) (UniProt P25788). The description is as above.
The target of a further test is XPO1 (human) (UniProt O14980). The description is as above.
A further test has as its target XPOT (human) (UniProt O43592). Described as above.
The target of the next test is LCN1 (human) (UniProt P31025). The description is as above.
Another test concerns the target MMS19 (human) (UniProt Q96T76). Described as above.
The target of another test is MMP14 (human) (UniProt P50281). The description is as above.
The target in another test is RPL7 (human) (UniProt P18124). The description is as above.
The next test deals with SYNPO (human) (UniProt Q8N3V7). The test is described as above.
Another test concerns the target DDX1 (human) (UniProt Q92499). The test is described as above.

PSMB5 (human), sequence (P28074 60-263 limits assumed): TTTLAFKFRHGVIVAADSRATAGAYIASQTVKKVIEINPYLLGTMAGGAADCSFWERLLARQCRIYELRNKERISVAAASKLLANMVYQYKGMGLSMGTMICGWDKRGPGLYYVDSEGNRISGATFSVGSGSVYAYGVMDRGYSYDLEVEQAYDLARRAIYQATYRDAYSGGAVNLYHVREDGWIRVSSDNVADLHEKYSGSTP
HIST1H1E, sequence (P10412 2-219 limits assumed): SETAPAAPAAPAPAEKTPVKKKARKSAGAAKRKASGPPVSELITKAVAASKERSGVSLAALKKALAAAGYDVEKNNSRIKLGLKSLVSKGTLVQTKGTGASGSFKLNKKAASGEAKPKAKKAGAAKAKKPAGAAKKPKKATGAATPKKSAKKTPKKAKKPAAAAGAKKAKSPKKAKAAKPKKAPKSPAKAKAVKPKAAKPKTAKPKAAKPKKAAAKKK
ITGB3, sequence (P05106 27-788 limits assumed): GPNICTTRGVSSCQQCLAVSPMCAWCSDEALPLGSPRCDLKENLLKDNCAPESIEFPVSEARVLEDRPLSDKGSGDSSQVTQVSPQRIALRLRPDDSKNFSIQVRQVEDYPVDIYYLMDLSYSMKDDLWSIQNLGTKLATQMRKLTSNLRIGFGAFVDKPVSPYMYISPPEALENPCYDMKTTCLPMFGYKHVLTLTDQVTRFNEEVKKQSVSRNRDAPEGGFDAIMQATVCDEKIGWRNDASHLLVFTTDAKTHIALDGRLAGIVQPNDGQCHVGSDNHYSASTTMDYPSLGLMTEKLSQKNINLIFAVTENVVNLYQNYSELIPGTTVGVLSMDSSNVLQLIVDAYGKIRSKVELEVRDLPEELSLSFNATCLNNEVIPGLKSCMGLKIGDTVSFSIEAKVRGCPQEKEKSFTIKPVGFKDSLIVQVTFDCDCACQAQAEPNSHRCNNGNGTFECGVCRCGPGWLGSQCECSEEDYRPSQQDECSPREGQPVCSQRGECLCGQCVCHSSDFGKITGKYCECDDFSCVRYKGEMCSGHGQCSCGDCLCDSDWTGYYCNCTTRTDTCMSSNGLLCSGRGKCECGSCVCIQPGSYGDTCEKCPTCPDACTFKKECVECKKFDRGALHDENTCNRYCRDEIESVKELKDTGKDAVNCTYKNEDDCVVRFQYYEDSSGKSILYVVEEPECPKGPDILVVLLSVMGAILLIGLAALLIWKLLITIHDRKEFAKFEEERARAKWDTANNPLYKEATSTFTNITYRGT
PSMA7, sequence (O14818 whole entry): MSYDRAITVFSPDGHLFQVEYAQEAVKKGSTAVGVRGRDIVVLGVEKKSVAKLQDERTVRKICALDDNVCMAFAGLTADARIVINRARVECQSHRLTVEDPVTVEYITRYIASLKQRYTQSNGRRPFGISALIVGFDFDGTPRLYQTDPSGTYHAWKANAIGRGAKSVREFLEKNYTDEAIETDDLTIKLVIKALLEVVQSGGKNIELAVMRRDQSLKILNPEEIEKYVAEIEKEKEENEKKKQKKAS
SERPINB3 (human), sequence (P29508 whole entry): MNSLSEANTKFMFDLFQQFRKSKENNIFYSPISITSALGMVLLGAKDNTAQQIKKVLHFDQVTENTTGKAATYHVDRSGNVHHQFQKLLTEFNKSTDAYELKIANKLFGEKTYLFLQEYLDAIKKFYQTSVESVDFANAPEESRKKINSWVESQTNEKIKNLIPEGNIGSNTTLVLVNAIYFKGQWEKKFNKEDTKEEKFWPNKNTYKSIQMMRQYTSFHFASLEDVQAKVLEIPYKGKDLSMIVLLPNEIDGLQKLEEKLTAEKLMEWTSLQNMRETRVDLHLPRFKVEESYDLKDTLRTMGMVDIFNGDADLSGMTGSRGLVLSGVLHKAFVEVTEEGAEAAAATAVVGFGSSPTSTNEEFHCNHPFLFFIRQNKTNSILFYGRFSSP
HBB (human), sequence (P68871 2-147 limits assumed): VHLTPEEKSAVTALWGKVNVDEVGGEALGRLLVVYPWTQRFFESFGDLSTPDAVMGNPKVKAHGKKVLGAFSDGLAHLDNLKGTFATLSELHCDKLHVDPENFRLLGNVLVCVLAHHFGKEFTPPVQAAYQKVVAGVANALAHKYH
PBXIP1, sequence (Q96AQ6 30-731 limits assumed): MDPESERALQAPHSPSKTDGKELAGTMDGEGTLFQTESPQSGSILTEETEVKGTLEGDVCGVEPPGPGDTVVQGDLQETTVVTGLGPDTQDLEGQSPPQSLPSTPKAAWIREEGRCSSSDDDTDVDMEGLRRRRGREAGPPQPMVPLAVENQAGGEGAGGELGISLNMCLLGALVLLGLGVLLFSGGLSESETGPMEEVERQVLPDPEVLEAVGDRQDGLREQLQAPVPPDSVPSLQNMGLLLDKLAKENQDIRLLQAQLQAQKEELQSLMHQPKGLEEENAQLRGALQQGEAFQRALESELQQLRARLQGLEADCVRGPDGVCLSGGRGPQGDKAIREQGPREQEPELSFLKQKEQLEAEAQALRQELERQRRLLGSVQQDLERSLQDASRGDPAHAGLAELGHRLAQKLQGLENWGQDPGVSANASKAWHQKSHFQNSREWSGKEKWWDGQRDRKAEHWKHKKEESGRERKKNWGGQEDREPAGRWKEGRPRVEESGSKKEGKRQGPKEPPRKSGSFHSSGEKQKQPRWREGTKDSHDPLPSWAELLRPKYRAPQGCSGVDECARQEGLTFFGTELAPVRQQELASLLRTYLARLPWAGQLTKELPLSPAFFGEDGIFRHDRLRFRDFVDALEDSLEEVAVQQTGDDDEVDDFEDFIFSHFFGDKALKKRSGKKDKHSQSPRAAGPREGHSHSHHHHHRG
MMS19 (human), sequence (Q96T76 other isoform, or with tags, fused parts or gaps limits assumed): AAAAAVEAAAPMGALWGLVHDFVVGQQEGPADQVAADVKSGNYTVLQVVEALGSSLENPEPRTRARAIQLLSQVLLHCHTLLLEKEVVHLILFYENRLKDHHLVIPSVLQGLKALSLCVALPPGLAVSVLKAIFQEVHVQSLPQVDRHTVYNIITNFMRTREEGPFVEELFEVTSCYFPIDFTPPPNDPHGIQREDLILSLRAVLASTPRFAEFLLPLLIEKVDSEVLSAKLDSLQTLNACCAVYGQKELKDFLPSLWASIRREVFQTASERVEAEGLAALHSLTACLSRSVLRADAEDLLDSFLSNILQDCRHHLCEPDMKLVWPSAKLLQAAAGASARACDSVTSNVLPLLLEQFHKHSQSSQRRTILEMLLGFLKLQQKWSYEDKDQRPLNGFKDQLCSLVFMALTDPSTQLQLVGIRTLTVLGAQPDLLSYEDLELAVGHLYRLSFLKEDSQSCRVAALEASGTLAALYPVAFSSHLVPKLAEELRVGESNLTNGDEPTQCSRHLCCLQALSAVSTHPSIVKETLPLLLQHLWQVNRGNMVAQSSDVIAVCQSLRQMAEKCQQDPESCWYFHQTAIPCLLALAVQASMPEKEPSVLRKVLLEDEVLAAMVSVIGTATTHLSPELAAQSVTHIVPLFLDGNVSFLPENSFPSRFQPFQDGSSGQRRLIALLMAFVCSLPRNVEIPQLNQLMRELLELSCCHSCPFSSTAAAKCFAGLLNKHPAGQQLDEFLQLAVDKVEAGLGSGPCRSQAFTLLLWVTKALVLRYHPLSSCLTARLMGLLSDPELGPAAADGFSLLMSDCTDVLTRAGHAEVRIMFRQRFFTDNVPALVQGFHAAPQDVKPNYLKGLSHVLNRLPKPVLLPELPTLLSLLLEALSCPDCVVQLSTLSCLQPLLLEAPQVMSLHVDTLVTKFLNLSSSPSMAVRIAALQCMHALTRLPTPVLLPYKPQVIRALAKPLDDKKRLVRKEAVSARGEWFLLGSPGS
XPOT (human), sequence (O43592 whole entry): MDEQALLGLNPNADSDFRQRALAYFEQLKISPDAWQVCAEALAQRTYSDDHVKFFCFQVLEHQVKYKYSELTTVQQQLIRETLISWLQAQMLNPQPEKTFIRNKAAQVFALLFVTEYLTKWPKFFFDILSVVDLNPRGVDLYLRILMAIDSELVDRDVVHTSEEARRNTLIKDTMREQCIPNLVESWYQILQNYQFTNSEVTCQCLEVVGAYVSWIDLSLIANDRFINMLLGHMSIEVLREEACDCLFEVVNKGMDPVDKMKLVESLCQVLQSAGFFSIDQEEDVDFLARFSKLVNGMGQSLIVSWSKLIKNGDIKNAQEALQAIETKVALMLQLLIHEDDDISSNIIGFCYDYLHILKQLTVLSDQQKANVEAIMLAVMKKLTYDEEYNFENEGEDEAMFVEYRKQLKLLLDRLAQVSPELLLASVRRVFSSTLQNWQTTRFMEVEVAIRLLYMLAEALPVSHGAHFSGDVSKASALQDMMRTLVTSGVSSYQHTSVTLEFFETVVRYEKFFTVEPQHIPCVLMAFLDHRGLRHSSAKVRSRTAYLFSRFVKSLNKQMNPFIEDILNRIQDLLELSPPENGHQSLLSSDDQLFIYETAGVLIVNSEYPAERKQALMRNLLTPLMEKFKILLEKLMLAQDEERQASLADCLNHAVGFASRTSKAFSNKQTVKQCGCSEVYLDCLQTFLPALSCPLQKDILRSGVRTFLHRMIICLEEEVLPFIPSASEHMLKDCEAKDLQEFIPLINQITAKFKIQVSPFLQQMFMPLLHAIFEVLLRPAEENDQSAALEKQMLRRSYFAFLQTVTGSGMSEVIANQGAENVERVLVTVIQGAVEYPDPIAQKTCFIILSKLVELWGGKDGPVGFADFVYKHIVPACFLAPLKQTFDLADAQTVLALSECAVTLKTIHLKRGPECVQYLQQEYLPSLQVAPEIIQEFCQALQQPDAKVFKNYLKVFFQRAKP
IL13RA2 (human), sequence (Q14627 27-380 limits assumed): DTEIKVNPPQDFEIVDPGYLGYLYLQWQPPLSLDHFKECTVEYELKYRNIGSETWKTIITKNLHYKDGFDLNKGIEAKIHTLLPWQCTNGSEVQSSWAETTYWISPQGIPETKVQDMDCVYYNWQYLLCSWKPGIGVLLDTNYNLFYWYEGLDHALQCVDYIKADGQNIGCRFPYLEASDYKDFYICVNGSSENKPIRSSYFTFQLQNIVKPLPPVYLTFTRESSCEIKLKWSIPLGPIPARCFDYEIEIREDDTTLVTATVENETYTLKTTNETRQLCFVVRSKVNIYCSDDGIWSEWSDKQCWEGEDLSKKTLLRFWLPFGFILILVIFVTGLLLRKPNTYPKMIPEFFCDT

Regarding “C-terminal FLAG tagged B3GNT2 (from UniProt Q9NY97 1-397) (enzyme)”, the co-IP mass spectrometry count in the test with DDX20 was 6; in the test with RPL3, 25; with MTDH it was 6; with ITGB3, 3; in the test with NCCRP1, 4; with DNAJA2 it was 3. Moreover, the co-IP mass spectrometry count was determined as 12 in the test with HNRNPU; 7 with SRSF3; 20 with RPS16; 3 with TAGLN; 2 with PSMA7; 6 in the test with HIST1H1E. Also, the co-IP mass spectrometry count with RPL27A came to 10; with PBXIP1, 4; with LIMA1, 2; with TNKS1BP1 it was 8; with RPL5, 6; in the test with RPL19, 11.

Consider “N-terminal FLAG tagged B3GNT2 (from UniProt Q9NY97 1-397) (enzyme)”, for which the co-IP mass spectrometry count with GSN (human) worked out at 2; with MAP4 (human), 0; with SERPINB3 (human) it was 10; with RACK1 (human), 2; in the test with PPFIBP1 (human), 2; with IL13RA2 (human) it was 3. The co-IP mass spectrometry count in the test with RHOT2 (human) turned out to be 3; with RPL28 (human), 8; with RPS27A (human) it was 8; with LCN1 (human), 11; in the test with RPL7 (human), 10; with SYNPO (human), 4. Also, in the test with DDX1 (human), the co-IP mass spectrometry count came to 7. Further, the co-IP/MS count, N-term FLAG amounted to 11 with HNRNPH1 (human); 4 with PSMB5 (human); 4 with HBB (human); 4 in the test with LUC7L3 (human); 4 with PSMA3 (human); 2 in the test with XPO1 (human). Also, the values for the co-IP/MS count, N-term FLAG with XPOT (human), with MMS19 (human) and with MMP14 (human) were 2, 4 and 2, respectively.
